Measurements taken from the supplement of paper PMC7877785.
± gives the uncertainty stated by the source.

Assay: self-splicing fitness, log relative to wild type (ln ratio); higher = more splicing; Tetrahymena group I intron in knt gene, E. coli kanamycin selection, DiMSum; sequences stand for … in CUCUCU…GGAGGGAAAAGUUAUCAGGCAUGCACCUGGUAGCUAGUCUUUAAACCAAUAGAUUGCAUCGGUUUAAAAGGCAAGACCGUCAAAUUGCGGGAAAGGGGUCAACAGCCGUUCAGUACCAAGUCUCAGGGGAAACUUUGAGAUGGCCUUGCAAAGGGUAUGGUAAUAAGCUGACGGACAUGGUCCUAACCACGCAGCCAAGUCCUAAGUCAACAGAUCUUCUGUUGAUAUGGAUGCAGUUCACAGACUAAAUGUCGGUCGGGGAAGAUGUAUUCUUCUCAUAAGAUAUAGUCGGACCUCUCCUUAAUGGGAGCUAGCGGAUGAAGUGAUGCAACACUGGAGCCGCUGGGAACUAAUUUGUAUGCGAAAGUAUAUUGAUUAGUUUUGGAGUACUCGUGGUCG
Method in brief: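 A randomised library covering all eight P1ex-region intron nucleotides was built with the intron in the knt kanamycin-resistance gene on pET-22b(+) and held in E. coli BL21(DE3). Cells were grown overnight at 37°C or 30°C on LB agar, with or without 25 μg/mL kanamycin, plus 100 μg/mL carbenicillin, 50 μM IPTG and 0.2% rhamnose, and pooled colonies were amplicon-sequenced on an Illumina HiSeq 2500. DiMSum fitness is the error-weighted combination of wild-type-normalised replicate fold changes, kanamycin versus none.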

Sequence	self-splicing fitness (ln) (30 °C)	self-splicing fitness (ln) (37 °C)
GUGAAGCAAUAUUACGCUGA	-1.32 ± 0.092	-1.09 ± 0.13
GUGAAGCAAUAUUACGCUUA	-1.49 ± 0.087	-0.459 ± 0.13
GUGAAGCAAUAUUACGGAAA	-1.64 ± 0.11	-0.16 ± 0.17
GUGAAGCAAUAUUACGGAUG	-0.987 ± 0.07	-0.586 ± 0.098
GUGAAGCAAUAUUACGGCCA	-0.0192 ± 0.11	0.468 ± 0.15
GUGAAGCAAUAUUACGGGGG	-2.67 ± 0.14	-3.08 ± 0.14
GUGAAGCAAUAUUACGGGGU	-3.53 ± 0.16	-1.45 ± 0.14
GUGAAGCAAUAUUACGGUGC	-1.74 ± 0.27	-0.977 ± 0.27
GUGAAGCAAUAUUACGUGGU	-4.17 ± 0.24	-1.61 ± 0.14
GUGCAGCAAUAUUACGAAAG	-1.58 ± 0.18	-2.38 ± 0.27
GUGCAGCAAUAUUACGAACU	-1.16 ± 0.11	0.161 ± 0.12
GUGCAGCAAUAUUACGAAGU	-1.74 ± 0.14	-0.554 ± 0.17
GUGCAGCAAUAUUACGAAUG	-2.95 ± 0.16	-2.01 ± 0.19
GUGCAGCAAUAUUACGACGC	-0.518 ± 0.099	0.23 ± 0.13
GUGCAGCAAUAUUACGAGAC	-2.12 ± 0.13	-1.53 ± 0.12
GUGCAGCAAUAUUACGAUAG	-2.3 ± 0.22	-2.21 ± 0.27
GUGCAGCAAUAUUACGAUGG	-3.54 ± 0.37	-3.15 ± 0.47
GUGCAGCAAUAUUACGCAGC	-3.21 ± 0.34	-1.3 ± 0.34
GUGCAGCAAUAUUACGCAUG	-3.11 ± 0.29	-0.586 ± 0.16
GUGCAGCAAUAUUACGCCAC		-1.95 ± 0.47
GUGCAGCAAUAUUACGCUUU	-1.26 ± 0.066	-0.18 ± 0.074
GUGCAGCAAUAUUACGGAGG	-3.96 ± 0.22	-2.55 ± 0.25
GUGCAGCAAUAUUACGGCGA	-0.548 ± 0.064	0.119 ± 0.092
GUGCAGCAAUAUUACGGCGG	-1.98 ± 0.11	-1.1 ± 0.13
GUGCAGCAAUAUUACGGUCA	-1.46 ± 0.12	-1.16 ± 0.11

Sequence	self-splicing fitness (ln) (30 °C)	self-splicing fitness (ln) (37 °C)
GUGCAGCAAUAUUACGGUCC	-0.146 ± 0.15	0.0655 ± 0.22
GUGCAGCAAUAUUACGGUGC	-1.91 ± 0.19	-2.31 ± 0.28
GUGCAGCAAUAUUACGUCAU	-2.23 ± 0.089	-1.95 ± 0.1
GUGCAGCAAUAUUACGUGAG	-0.173 ± 0.054	-0.117 ± 0.084
GUGCAGCAAUAUUACGUGUA	-2.77 ± 0.16	-1.31 ± 0.11
GUGCAGCAAUAUUACGUUAU	-1.84 ± 0.084	-0.973 ± 0.098
GUGCAGCAAUAUUACGUUCU	-1.1 ± 0.1	0.673 ± 0.097
GUGGAGCAAUAUUACGACUA		-0.509 ± 0.37
GUGGAGCAAUAUUACGCCAA	-2.82 ± 0.33	-0.536 ± 0.33
GUGGAGCAAUAUUACGCGAU	-2.82 ± 0.32	-2.31 ± 0.39
GUGGAGCAAUAUUACGCGGG	-2.34 ± 0.36	-2.06 ± 0.47
GUGGAGCAAUAUUACGGCAU	-2.46 ± 0.13	-2.62 ± 0.17
GUGGAGCAAUAUUACGGCUA	-1.06 ± 0.48	-0.218 ± 0.35
GUGGAGCAAUAUUACGGUCA	-2.12 ± 0.17	-1.23 ± 0.13
GUGGAGCAAUAUUACGUAGA	-2.11 ± 0.45	-1.16 ± 0.23
GUGGAGCAAUAUUACGUGUG	-2.65 ± 0.21	-2.65 ± 0.23
GUGGAGCAAUAUUACGUUUU	-3.35 ± 0.28	-2.48 ± 0.48
GUGUAGCAAUAUUACGACAC	-2.68 ± 0.18	-2.17 ± 0.2
GUGUAGCAAUAUUACGAGUG	-2.83 ± 0.43	
GUGUAGCAAUAUUACGAUAU	-0.699 ± 0.17	-0.881 ± 0.21
GUGUAGCAAUAUUACGCAAU	-2.06 ± 0.22	-1.26 ± 0.18
GUGUAGCAAUAUUACGCGGA		-1.54 ± 0.36
GUGUAGCAAUAUUACGGACA	-0.685 ± 0.15	-1.11 ± 0.18
GUGUAGCAAUAUUACGGUAA	-2.48 ± 0.14	-1.49 ± 0.11
GUGUAGCAAUAUUACGUAAA	-2.96 ± 0.21	-0.326 ± 0.15

Sequence	self-splicing fitness (ln) (30 °C)	self-splicing fitness (ln) (37 °C)
GUGUAGCAAUAUUACGUAAU	-1.75 ± 0.12	-0.371 ± 0.12
GUGUAGCAAUAUUACGUAUC	-1.01 ± 0.29	
GUGUAGCAAUAUUACGUCAG	-3.06 ± 0.26	-2.53 ± 0.29
GUGUAGCAAUAUUACGUGCG	-1.8 ± 0.18	-0.374 ± 0.19
GUGUAGCAAUAUUACGUGUC	-2.67 ± 0.21	-0.104 ± 0.12
GUGUAGCAAUAUUACGUUAU	-2.81 ± 0.16	-2.41 ± 0.2
GUUAAGCAAUAUUACGAAAC	-3 ± 0.48	-2.83 ± 0.48
GUUAAGCAAUAUUACGAAGU	-2.06 ± 0.18	-1.45 ± 0.23
GUUAAGCAAUAUUACGAGAC		-0.662 ± 0.25
GUUAAGCAAUAUUACGAGGG	-3.99 ± 0.21	-3.08 ± 0.25
GUUAAGCAAUAUUACGAGUA	-2.5 ± 0.12	-1.32 ± 0.095
GUUAAGCAAUAUUACGAUCA	-0.949 ± 0.23	-0.245 ± 0.2
GUUAAGCAAUAUUACGAUCU	-0.419 ± 0.087	-0.373 ± 0.11
GUUAAGCAAUAUUACGCACU	-0.8 ± 0.22	-1.17 ± 0.23
GUUAAGCAAUAUUACGCAGA	-2.33 ± 0.14	-2.85 ± 0.14
GUUAAGCAAUAUUACGCCUU	-0.286 ± 0.071	0.261 ± 0.096
GUUAAGCAAUAUUACGCGAC	-3.02 ± 0.21	-2.15 ± 0.22
GUUAAGCAAUAUUACGCGAU	-3.1 ± 0.21	-2.65 ± 0.29
GUUAAGCAAUAUUACGCGUA	-1.2 ± 0.17	-0.453 ± 0.25
GUUAAGCAAUAUUACGCUUC		-1.01 ± 0.49
GUUAAGCAAUAUUACGGAAA	-1.77 ± 0.26	-1.06 ± 0.27
GUUAAGCAAUAUUACGGACA	-0.907 ± 0.21	-1.18 ± 0.21
GUUAAGCAAUAUUACGGAGC	-3.58 ± 0.33	-2.55 ± 0.27
GUUAAGCAAUAUUACGGAUG	-3.1 ± 0.28	-0.786 ± 0.16
GUUAAGCAAUAUUACGGAUU	-2.21 ± 0.12	-0.713 ± 0.14

Sequence	self-splicing fitness (ln) (30 °C)	self-splicing fitness (ln) (37 °C)
GUUAAGCAAUAUUACGGCUG	-0.765 ± 0.11	-0.135 ± 0.13
GUUAAGCAAUAUUACGGGAA	-1.87 ± 0.34	-1.86 ± 0.29
GUUAAGCAAUAUUACGGUUC	-1.6 ± 0.081	-0.156 ± 0.12
GUUAAGCAAUAUUACGGUUG	-3.12 ± 0.28	-1.22 ± 0.24
GUUAAGCAAUAUUACGUACC	-0.386 ± 0.29	
GUUAAGCAAUAUUACGUAGA	-3.06 ± 0.16	-0.537 ± 0.12
GUUAAGCAAUAUUACGUUUA	-2.74 ± 0.15	-1.61 ± 0.11
GUUCAGCAAUAUUACGAUGG	-3.81 ± 0.29	-2.31 ± 0.25
GUUCAGCAAUAUUACGAUGU	-0.419 ± 0.075	0.31 ± 0.11
GUUCAGCAAUAUUACGCCAU	-2.66 ± 0.21	-1.99 ± 0.14
GUUCAGCAAUAUUACGCCGA	-2.43 ± 0.31	-1.34 ± 0.29
GUUCAGCAAUAUUACGCCGG	-2.55 ± 0.21	-0.806 ± 0.28
GUUCAGCAAUAUUACGCGCC	-1.96 ± 0.31	-1.43 ± 0.34
GUUCAGCAAUAUUACGCGUU	-0.588 ± 0.062	0.431 ± 0.067
GUUCAGCAAUAUUACGCUAU	-1.32 ± 0.081	-0.451 ± 0.092
GUUCAGCAAUAUUACGCUGA	-2.16 ± 0.24	-2.43 ± 0.31
GUUCAGCAAUAUUACGGCCA	-0.626 ± 0.12	-0.426 ± 0.15
GUUCAGCAAUAUUACGGCGA	-1.16 ± 0.19	0.354 ± 0.18
GUUCAGCAAUAUUACGGUAA	-1.21 ± 0.07	-0.563 ± 0.07
GUUCAGCAAUAUUACGUACA	-1.13 ± 0.11	-0.94 ± 0.11
GUUCAGCAAUAUUACGUGCU		-2.98 ± 0.28
GUUCAGCAAUAUUACGUGGA	-3.5 ± 0.41	-1.42 ± 0.2
GUUCAGCAAUAUUACGUGGG	-2.07 ± 0.13	-1.92 ± 0.15
